# Values of other authors, collected in article PMC9206673.
# What was measured:
# [1] = target: neurotransmitter receptor peptide
# Gephyrin, sequence (Q8BUV3 whole entry): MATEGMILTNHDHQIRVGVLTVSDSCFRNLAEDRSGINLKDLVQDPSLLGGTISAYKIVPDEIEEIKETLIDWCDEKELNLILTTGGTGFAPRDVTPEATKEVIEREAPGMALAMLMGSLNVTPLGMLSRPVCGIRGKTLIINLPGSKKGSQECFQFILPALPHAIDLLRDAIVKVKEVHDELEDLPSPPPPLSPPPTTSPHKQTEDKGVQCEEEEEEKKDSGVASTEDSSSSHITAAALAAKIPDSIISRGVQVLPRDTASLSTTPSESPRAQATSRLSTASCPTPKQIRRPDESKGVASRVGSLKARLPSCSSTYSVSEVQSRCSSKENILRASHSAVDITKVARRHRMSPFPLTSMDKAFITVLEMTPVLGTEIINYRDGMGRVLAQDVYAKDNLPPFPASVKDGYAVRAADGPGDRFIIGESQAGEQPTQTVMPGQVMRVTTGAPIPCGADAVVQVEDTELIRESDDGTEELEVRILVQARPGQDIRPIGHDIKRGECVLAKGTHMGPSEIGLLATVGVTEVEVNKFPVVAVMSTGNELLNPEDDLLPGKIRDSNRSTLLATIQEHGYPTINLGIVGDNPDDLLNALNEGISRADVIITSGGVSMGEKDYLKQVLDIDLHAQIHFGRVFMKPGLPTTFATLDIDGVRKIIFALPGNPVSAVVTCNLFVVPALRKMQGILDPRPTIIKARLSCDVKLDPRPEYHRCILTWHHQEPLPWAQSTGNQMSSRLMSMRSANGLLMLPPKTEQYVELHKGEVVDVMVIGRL
substance,measurement,setting,value
Gephyrin (from UniProt Q8BUV3),Kd,[1],140 nM
same,Kd,gephyrin-binding peptide,0.14 nM
